The test addresses OmpR fused to the VP64 activation domain (E. coli). Kind of test: cell-based or functional assay.

The substance “EnvZm2 (T247A) (from UniProt A0A4P7TSF2 1-450) (enzyme)” had a fold-change of OmpR-driven mKate2 median fluorescence output (6xmCMV37 promoter, HEK-293FT cells), EnvZm2 (kinase) against EnvZm1 (D244A phosphatase, SEQ ID NO: 2), at the highest levels of OmpR of 40 fold; a fold-change of mKate2 median fluorescence output from the strongest OmpR promoter when the kinase (EnvZm2) or the phosphatase (EnvZm1) was present, HEK-293FT cells of 500 fold; a relative kinase strength against EnvZm1 phosphatase, from OmpR-driven mKate2 output in kinase titrations (Open-loop against Const. P), HEK-293FT cells of under 3 fold.
